# In the RNAGym collection of RNA variant scans (doi:10.7554/elife.90254):
# B1: LINE1-full (parent)
# chain: UACGUAGGUGGUUUUCCCCUGAUAGUGCUAAGGGGGCCUGGAAGUUUGGACUGGGCAGAGCUCAACACAGCGUGGCAAAGUGGCUGUGGCUAGACUGCCUCUCUGGAUUCCUCGUCACUCAGCAGGGCAUCUCUGAGAGAAAUGCC
# Variants of: B1
# Assay: self-cleavage, relative activity (ratio to wild type); higher = more cleavage; in vitro, sequencing; the parent is a self-cleaving ribozyme
row,Variant,self-cleavage
1,A78G U119G,1.04
2,A79G C110A,1.29
3,A79G C110U,2.15
4,A78U C116G,2.13
5,G80A A121C,2.91
6,A78G G89C,0.07
7,A78G C98G,0.11
8,A78G C98U,0.47
9,G82A A92G,0.04
10,A79C U119A,1.01
11,A79U U112C,1.95
12,A79U C84A,0.21
13,C84A G93U,0.05
14,G83A C90U,0.06
15,G80C A121G,1.18
16,U81C G88A,0.12
17,U81C G88U,0.05
18,A79G A107G,1.21
19,A79G A107C,0.92
20,U81G U115A,1.28
21,G82A A117G,1.77
22,G80C A141G,1.04
23,U81C G126U,1.4
24,C84A A136U,0.19

row,Variant,self-cleavage
1,A78U U112A,2.12
2,A79C A92G,0.24
3,A78G U100C,2.09
4,A78G U100A,0.16
5,A79C U85C,0.58
6,U81A A121G,2.65
7,U81A A121U,1.7
8,A78G G127A,1.16
9,A79G U91A,0.32
10,U81C C146A,1.8
11,G80A A124U,2.27
12,A78U U119C,2.05
13,A79G G122A,1.31
14,G80U A124G,1.69
15,A78G U104C,1.82
16,U81A U104C,2.77
17,U81A U104A,1.81
18,A78U A136C,2.73
19,A78G G126C,1.99
20,G80C C98U,0.26
21,U81C A141G,1.07
22,U81G A124U,1.75
23,A78G A140U,1.38
24,A78G A140G,1.18

row,Variant,self-cleavage
1,A78U U102C,1.12
2,A78G G83A,0.25
3,A79G A136G,1.42
4,A78U G127C,2.34
5,A79U U102A,2.23
6,A79G C113A,0.14
7,A79G C98G,0.12
8,U81G U104C,0.26
9,A78G A124G,0.99
10,A78G A124C,1.59
11,G80U U134A,1.45
12,A79U A117G,2.57
13,A79G,1.25
14,A79C,1.57
15,A79U,1.85
16,U81C U87A,0.1
17,G80C U109C,1.27
18,A79G U134G,0.57
19,A79G U134C,1.25
20,A79G U100A,0.71
21,G82U U112C,1.18
22,A78U U104C,0.87
23,A78U U104A,1.8
24,A78G U87A,0.1

row,Variant,self-cleavage
1,A78G U87C,0.15
2,A78U U87C,0.84
3,G82U A129G,1.54
4,A78G A121U,0.67
5,A78G A121C,1.9
6,A78G A121G,1.24
7,A79G C84G,0.07
8,G82A U85C,0.23
9,G82A U85A,0.14
10,U81A U87C,0.19
11,U81A U87A,0.11
12,G80A A94G,0.23
13,G83A G127A,0.52
14,A79G G105U,1.19
15,A79G G105A,1.29
16,A79G G126A,1.51
17,A78G G106A,1.45
18,G80A G127C,1.6
19,G83A G144U,1.55
20,A78U C84A,0.18
21,U81A U85C,0.16
22,A79C A141G,1.96
23,A79G G83U,0.2
24,A78U A124U,2.15

row,Variant,self-cleavage
1,A78U U96A,0.07
2,G82A A129U,1.21
3,G82A A129G,2.28
4,A79G A138C,2.4
5,U81C A124U,0.74
6,U81C A124G,1.25
7,A79C A129G,1.93
8,A78U G122A,1.36
9,A78G G144A,1.3
10,U81G G122U,1.42
11,G83A A142G,0.97
12,U81C U85C,0.12
13,U81C U119C,1.84
14,U81A U134C,2.26
15,U81A U102C,2.18
16,G83U U143C,1.01
17,A78G U85A,0.09
18,A79G G125C,1.28
19,U81C U100C,1.29
20,U81A A140G,1.95
21,U81C G125U,1.5
22,G80A G126U,2.06
23,A79U U109G,1.1
24,A79U U109C,1.34

row,Variant,self-cleavage
1,A78G A94G,0.49
2,A78G A94U,0.19
3,G82A A142G,2.1
4,U81C U112C,1.26
5,U81C G114A,1.17
6,A79G C128A,0.46
7,G83A A140G,0.49
8,A78C U112C,1.94
9,A78G U115C,1.51
10,U81C A138U,1.22
11,U81C A138C,2.23
12,A78G U108A,1.41
13,A78G U108C,1.64
14,A78G U108G,1.38
15,G80A A138G,2.06
16,A79G G137A,1.03
17,C84A A140G,0.13
18,A79U C101A,1.92
19,G83A U96C,0.11
20,A78G U109C,1.38
21,G80A U87C,0.2
22,G80A A136U,2.49
23,G80U A121G,1.5
24,G80U A138G,1.45

row,Variant,self-cleavage
1,G80A G89A,0.07
2,A78G G80A,2.49
3,U81C G144A,0.42
4,A79G U109C,1.26
5,A79G U109A,1.19
6,A79G G88U,0.05
7,G80A A107U,2.11
8,A79G C145U,1.09
9,G83A U130C,1.13
10,A78U U115C,1.72
11,A79G U143C,1.47
12,U81C C111U,1.75
13,G80C G86U,0.04
14,G82A U91C,0.94
15,A79G U102C,0.89
16,A79G U102A,1.12
17,A79G C118U,2.23
18,A79U U143A,1.29
19,A79U U143C,2.02
20,U81C U96C,0.2
21,U81C U96A,0.1
22,G80U A107G,0.94
23,U81C U143C,1.61
